Experimental data: patent publication US4285932A, “Enzyme derivatives for use in the treatment of venous thrombosis” (Beecham Group Limited, priority 1978, dated 1981)

Key:
[1] = system: streptokinase-human plasminogen activator complex; assay: Residual enzyme activity of acylated streptokinase-human plasminogen activator complex; assay type: biochemical; details: freeze-dried powder
Procedure: (§1) The time for which the reaction is allowed to proceed depends upon the blocking reagent employed, the temperature at which the reaction is carried out and the enzyme selected for blocking. The optimum time period for any particular circumstances may be selected by following the decrease in enzymic activity by incubating aliquots with a chromogenic or fluorogenic substrate.

[2] = system: Porcine Plasmin; assay: Deacylation (hydrolysis) of active-site blocked porcine plasmin, pseudo-first order rate constant followed by regain of activity on chromogenic substrate; assay type: biochemical
Procedure: The pseudo-first order rate constant is determined by hydrolysing the enzyme derivative under physiological conditions i.e. in isotonic aqueous media at pH 7.4 and at 37° C. At regular intervals aliquots are withdrawn and incubated with a chromogenic or fluorogenic protease substrate such as S-2251 (H-D-Val-Leu-Lys-p-nitroanilide 2HCl) and the rate of conversion of the substrate measured.
The hydrolysis is followed until such time as the rate of conversion of substrate reaches a maximum. The rate constant k is then calculated by plotting: […]
loge (1-^At /Amax) against t
where Amax the maximum rate at which an aliquot converts substrate and At is the rate at which an aliquot converts substrate at time t.

[3] = system: Porcine Plasmin; assay: Residual enzyme activity of blocked porcine plasmin versus original enzyme; assay type: biochemical; details: after acylation and dialysis
Procedure: as §1

[4] = system: radio-labelled clot in the inferior vena cava; assay: In vivo fibrinolytic enzyme test: radio-labelled clot in the inferior vena cava of the rabbit; set-up: species or system New Zealand white rabbit; details: systemic infusion, blood radioactivity at least twice background within six hours without death
Description: The agent under test is introduced into the bloodstream at a point where it must pass through the heart to ensure that the agent will be thoroughly mixed with venous blood. Non-specific lytic enzymes attack blood proteins and cause death before any lysis of the clot is observed. Enzymes which have a degree of specificity for fibrin lyse the clot at a dose lower than the lethal dose.
A New Zealand white rabbit (2.5-3.5 kg) is anaesthetised and three cannulas are inserted into the anterior facial vein (referred to as cannula 1 in this description), the left carotid artery (referred to as cannula 2) and the left external iliac vein (referred to as cannula 3). […] The quantity of 50 μl is determined arbitrarily, and represents an amount between the minimum quantity which can be measured accurately and the maximum quantity which can be injected without excessive disturbance of physiological conditions within the isolated vein portion. […] The first swab is transferred to a counting vial, and the level of γ -radiation is measured. […]
Constriction is required in order to prevent dislodgement of the clot. […] A second blood sample (P10) is withdrawn into citrate buffer as above and counted as previously described ten minutes after Po This count is made to check that no additional radio-activity has been washed into the bloodstream, thereby giving an indication of the stability of the clot. […]

Molecule: p-Anisoyl Streptokinase-Human Plasminogen Activator Complex [Example 26]
- remaining share of the original enzyme activity [1]: less than 5%

B1: Trans-Cinnamoyl Porcine Plasmin (protein, UniProt P06867 20-579; P06867 580-809, looked up)
Plasmin heavy chain A: DSLDDYVNTQGAFLFSLSRKQVAARSVEECAAKCEAETNFICRAFQYHSKDQQCVVMAENSKTSPIARMRDVVLFEKRIYLSECKTGNGKNYRGTTSKTKSGVICQKWSVSSPHIPKYSPEKFPLAGLEENYCRNPDNDEKGPWCYTTDPETRFDYCDIPECEDECMHCSGEHYEGKISKTMSGIECQSWGSQSPHAHGYLPSKFPNKNLKMNYCRNPDGEPRPWCFTTDPNKRWEFCDIPRCTTPPPTSGPTYQCLKGRGENYRGTVSVTASGHTCQRWSAQSPHKHNRTPENFPCKNLEENYCRNPDGETAPWCYTTDSEVRWDYCKIPSCGSSTTSTEYLDAPVPPEQTPVAQDCYRGNGESYRGTSSTTITGRKCQSWVSMTPHRHEKTPGNFPNAGLTMNYCRNPDADKSPWCYTTDPRVRWEYCNLKKCSETEQQVTNFPAIAQVPSVEDLSEDCMFGNGKRYRGKRATTVAGVPCQEWAAQEPHRHSIFTPETNPRAGLEKNYCRNPDGDDNGPWCYTTNPQKLFDYCDVPQCVTSSFDCGKPKVEPKKCPAR
Plasmin light chain B: VVGGCVSIPHSWPWQISLRHRYGGHFCGGTLISPEWVLTAKHCLEKSSSPSSYKVILGAHEEYHLGEGVQEIDVSKLFKEPSEADIALLKLSSPAIITDKVIPACLPTPNYVVADRTACYITGWGETKGTYGAGLLKEARLPVIENKVCNRYEYLGGKVSPNELCAGHLAGGIDSCQGDSGGPLVCFEKDKYILQGVTSWGLGCALPNKPGVYVRVSRFVTWIEEIMRRN
modifications: plasmin trans-cinnamoyl acylated active site
notes: porcine plasmin acylated with p-amidinophenyl transcinnamate
- Deacylation rate, Porcine Plasmin K sec^-1 × 10^4 ([2]; active site serine substituted porcine plasmin, pH 7.4, 37° C.): 4.20 sec^-1 × 10^4
- time for reactivation ([2]; deacylation conditions): two
- activity of the derivative relative to the original enzyme [3]: less than 0.5%

B2: human plasmin: free proteolytic enzyme, in vivo fibrinolytic enzyme (protein, UniProt P00747 20-580; P00747 581-810, looked up)
Plasmin heavy chain A: EPLDDYVNTQGASLFSVTKKQLGAGSIEECAAKCEEDEEFTCRAFQYHSKEQQCVIMAENRKSSIIIRMRDVVLFEKKVYLSECKTGNGKNYRGTMSKTKNGITCQKWSSTSPHRPRFSPATHPSEGLEENYCRNPDNDPQGPWCYTTDPEKRYDYCDILECEEECMHCSGENYDGKISKTMSGLECQAWDSQSPHAHGYIPSKFPNKNLKKNYCRNPDRELRPWCFTTDPNKRWELCDIPRCTTPPPSSGPTYQCLKGTGENYRGNVAVTVSGHTCQHWSAQTPHTHNRTPENFPCKNLDENYCRNPDGKRAPWCHTTNSQVRWEYCKIPSCDSSPVSTEQLAPTAPPELTPVVQDCYHGDGQSYRGTSSTTTTGKKCQSWSSMTPHRHQKTPENYPNAGLTMNYCRNPDADKGPWCFTTDPSVRWEYCNLKKCSGTEASVVAPPPVVLLPDVETPSEEDCMFGNGKGYRGKRATTVTGTPCQDWAAQEPHRHSIFTPETNPRAGLEKNYCRNPDGDVGGPWCYTTNPRKLYDYCDVPQCAAPSFDCGKPQVEPKKCPGR
Plasmin light chain B: VVGGCVAHPHSWPWQVSLRTRFGMHFCGGTLISPEWVLTAAHCLEKSPRPSSYKVILGAHQEVNLEPHVQEIEVSRLFLEPTRKDIALLKLSSPAVITDKVIPACLPSPNYVVADRTECFITGWGETQGTFGAGLLKEAQLPVIENKVCNRYEFLNGRVQSTELCAGHLAGGTDSCQGDSGGPLVCFEKDKYILQGVTSWGLGCARPNKPGVYVRVSRFVTWIEGVMRNN
modifications: Plasmin
- dose giving a positive result in the in vivo fibrinolytic test [4]: 1×10^-7 to 5×10^-6 mol of active catalytic sites per kg of test animal
